Earlier results as cited in paper PMC3362950.
pKd: −log10 of the molar value.

Biological target: Kv1.3 (UniProt P22001)
Sequence of UniProt P22001 (P22001 whole entry): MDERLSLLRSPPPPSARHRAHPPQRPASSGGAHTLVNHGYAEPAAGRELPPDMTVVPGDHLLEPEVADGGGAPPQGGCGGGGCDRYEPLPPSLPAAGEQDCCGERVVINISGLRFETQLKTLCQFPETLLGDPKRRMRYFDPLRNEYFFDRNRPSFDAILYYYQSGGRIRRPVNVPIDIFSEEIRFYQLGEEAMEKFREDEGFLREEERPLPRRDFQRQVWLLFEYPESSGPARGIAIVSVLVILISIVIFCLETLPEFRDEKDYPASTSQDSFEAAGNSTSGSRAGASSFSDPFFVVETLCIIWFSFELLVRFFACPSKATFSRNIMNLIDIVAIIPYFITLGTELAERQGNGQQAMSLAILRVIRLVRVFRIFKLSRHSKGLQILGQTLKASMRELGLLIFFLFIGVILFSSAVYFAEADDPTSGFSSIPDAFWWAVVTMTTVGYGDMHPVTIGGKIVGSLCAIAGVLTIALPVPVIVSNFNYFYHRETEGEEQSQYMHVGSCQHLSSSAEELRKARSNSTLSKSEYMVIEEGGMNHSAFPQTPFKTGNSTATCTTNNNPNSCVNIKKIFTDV

KTX (from UniProt P24662)
pKd: 11.00
